Assay results from patent US8236762B2, “Peptide-cytotoxic conjugates” (IPSEN Pharma S.A.S., priority 2006, dated 2012).
Where two headings read alike, the source gives them in different places. Numbered stars: 1 amine (or outer) side, 2 acyl side, 3 side chain; on linkers, the order of the positions; unused ones are H or OH. Square brackets hold non-standard residues; d marks the D form. Peptide text beside a SMILES is read from it. * marks the point of attachment. Pipz(1-CH2CO,4-CH2CH2NH) = O=C(CN1CCN(CCN[*:1])CC1)[*:2]; X1 = CC[C@@]1(O*)C(=O)OCc2c1cc1n(c2=O)Cc2cc3ccccc3nc2-1; Suc = O=C(CCC(=O)[*:2])[*:1]; Nle = CCCC[C@H](N)C(=O)O; AEEA = NCCOCCOCC(=O)O; GABA = NCCCC(=O)O; βAla = NCCC(=O)O

Columns and labels:
[1] = Half-life determination in human plasma (LC-MS); format: in vitro ADME; conditions: 37° C.
Description: (§1) Samples containing approximately 50 μg/ml up to and including approximately 500 μg/ml of test compound according to Formula IA or IB or II was added to 450 μl human or mouse plasma, vortexed briefly and incubated at 37° C. At various time intervals, e.g., 0, 0.5, 1, 2, 4, 6, 8, 24, 36 and 48 hours, 50 μl of the compound-plasma mixture was added to 150 μl acetonitrile in a microcentrifuge tube. The mixture was vortexed, centrifuged for 5 minutes at 10K RPM, and 135 μl of supernatant was transferred to an injection vial. The recovered supernatant was analyzed by using a liquid chromatography-mass spectrophotometer system (LC-MS) consisting of a Finnigan Deca XP® mass spectrometer with an ESI probe at the positive ion mode. HPLC separation was carried out on a Luna 3μ C8 (2)® 3×50 mm column with a gradient decreasing from 100% A to 80% B for 10 minutes at a flow rate of 0.25 ml/min. Buffer A was 0.1% acetic acid in water and buffer B was 0.1% acetic acid acetonitrile.

hSSTR-4 = biological target: T1, hSSTR-4 (Homo sapiens, UniProt P31391); assay: Somatostatin receptor radioligand binding, hSSTR-4 (CHO-K1 membranes); conditions: read-out: Ki hSSTR4 ± (SEM)
T1 construct: expressed in transfected cells; host or cells: CHO-K1
Description: For the hSSTR-1, hSSTR-3, and hSSTR-4 assays, aliquots of the membrane preparations were incubated for 90 minutes at 25° C. with 0.05 nM [^125I-Tyr11]SRIF-14 in 50 mM HEPES (pH 7.4) buffer containing 0.2% BSA and 5 mM MgCl2. The final assay volume was 0.3 ml. For the hSSTR-2 and hSSTR-5 assays, [^125I]-[4-(2-hydroxyethyl)]-1-piperazinylacetyl-D-Phe-c(Cys-Tyr-D-Trp-Lys-Abu-Cys)-Thr-NH2 (0.05 nM) and [^125I]-D-Phe-c(Cys-Tyr-D-Trp-Lys-Val-Cys)-Thr-NH2 were employed as the radioligands, respectively.

hSSTR-1 = biological target: T2, hSSTR-1 (Homo sapiens, UniProt P30872); assay: Somatostatin receptor radioligand binding, hSSTR-1 (CHO-K1 membranes); conditions: read-out: Ki hSSTR1 ± (SEM)
T2 construct: expressed in transfected cells; host or cells: CHO-K1
Description: Membranes for in vitro receptor binding assays were obtained by homogenizing (Polytron setting 6, 15 sec) CHO-K1 cells expressing human somatostatin receptor subtypes hSSTR-1, hSSTR-2, hSSTR-3, hSSTR-4 or hSSTR-5 in ice-cold 50 mM Tris-HCl. The homogenized cells were centrifuged twice at 39,000 g for 10 minutes with an intermediate resuspension in fresh buffer. The final pellets were resuspended in 10 mM Tris-HCl to prepare the cell membrane homogenate for use in the binding assay.
The final assay volume was 0.3 ml.
The cell membrane homogenate was incubated with the radioligands for 90 minutes at 25° C. The incubations were terminated by rapid filtration through GF/C filters pre-soaked in 0.3% polyethylenimine using a Brandel® filtration manifold (Gaithersberg, Md., U.S.A.). Each tube and filter was washed three times with 5-ml aliquots of ice-cold buffer. Specific binding was defined as the total radioligand bound minus that bound in the presence of 1000 nM SRIF-14 (for hSSTR-1, hSSTR-3, hSSTR-4 or hSSTR-5), or 1000 nM DPhe-c(Cys-Tyr-D-Trp-Lys-Abu-Cys)-Thr-NH2 for hSSTR-2.

[2] = Half-life determination in mouse plasma (LC-MS); format: in vitro ADME; conditions: 37° C.
Description: as §1

[3] = [125I-Tyr11]SRIF-14, value of 1000 indicates at least 1000

T1 sequence (P31391 whole entry): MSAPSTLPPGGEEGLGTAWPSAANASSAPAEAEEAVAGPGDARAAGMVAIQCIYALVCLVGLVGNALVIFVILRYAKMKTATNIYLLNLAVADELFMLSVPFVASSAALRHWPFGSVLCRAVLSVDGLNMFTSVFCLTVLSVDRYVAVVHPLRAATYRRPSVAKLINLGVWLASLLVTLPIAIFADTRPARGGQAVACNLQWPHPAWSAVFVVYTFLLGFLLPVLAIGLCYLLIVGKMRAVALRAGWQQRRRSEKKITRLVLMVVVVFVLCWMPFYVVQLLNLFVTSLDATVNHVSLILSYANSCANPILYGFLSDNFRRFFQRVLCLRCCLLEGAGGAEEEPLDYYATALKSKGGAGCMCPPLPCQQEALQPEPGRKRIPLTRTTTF
T2 sequence (P30872 whole entry): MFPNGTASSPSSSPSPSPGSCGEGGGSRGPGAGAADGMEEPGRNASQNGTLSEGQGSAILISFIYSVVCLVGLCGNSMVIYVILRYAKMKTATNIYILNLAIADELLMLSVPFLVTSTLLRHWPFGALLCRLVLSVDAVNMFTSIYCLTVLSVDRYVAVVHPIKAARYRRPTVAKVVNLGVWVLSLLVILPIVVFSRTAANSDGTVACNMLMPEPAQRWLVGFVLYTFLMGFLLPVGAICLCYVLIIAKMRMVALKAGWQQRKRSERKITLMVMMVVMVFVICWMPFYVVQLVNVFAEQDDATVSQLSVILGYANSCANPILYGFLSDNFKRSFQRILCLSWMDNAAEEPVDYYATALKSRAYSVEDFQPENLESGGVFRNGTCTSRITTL

| Compound | half-life [1] [h] | Ki (hSSTR-4) [nM] | Ki (hSSTR-1) [nM] | half-life [2] [h] | Ki (hSSTR-4; [3]) [nM] | Ki (hSSTR-1; [3]) [nM] |
| --- | --- | --- | --- | --- | --- | --- |
| CC[C@@H]1NC(=O)[C@H](CCCCN)NC(=O)[C@@H](Cc2c[nH]c3ccccc23)NC(=O)[C@H](Cc2ccc(O)cc2)NC(=O)[C@@H](NC(=O)[C@@H](Cc2ccccc2)NC(=O)CN2CCN(CCNC(=O)COCCOCCNC(=O)COCCOCCNC(=O)COCCOCCNC(=O)COCCOCCNC(=O)CCC(=O)N[C@@H](CC)C(=O)O[C@]3(CC)C(=O)OCc4c3cc3n(c4=O)Cc4cc5ccccc5nc4-3)CC2)CSSC[C@@H](C(=O)N[C@H](C(N)=O)[C@@H](C)O)NC1=O [Example 12, Camptothecin-rvAbu-Suc-(Doc)4-Aepa-D-Phe-c(Cys-Tyr-D-Trp-Lys-Abu-Cys)-Thr-NH2] | 0.7 | ≥ 1000 | ≥ 1000 | 6 | – | – |
| Camptothecin-rvD-Glu-Suc-(Doc)4-Aepa-D-Phe-c(Cys-Tyr-D-Trp-Lys-Abu-Cys)-Thr-NH2 and Camptothecin-rvGlu-Suc-(Doc)4-Aepa-D-Phe-c(Cys-Tyr-D-Trp-Lys-Abu-Cys)-Thr-NH2 [Example 6] | – | – | – | – | ≥ 1000 | ≥ 1000 |
| CCc1c2c(nc3ccc(O)cc13)-c1cc3c(c(=O)n1C2)COC(=O)[C@@]3(CC)OC(=O)CNC(=O)CCC(=O)NCCOCCOCC(=O)NCCOCCOCC(=O)NCCOCCOCC(=O)NCCOCCOCC(=O)NCCN1CCN(CC(=O)N[C@H](Cc2ccccc2)C(=O)N[C@H]2CSSC[C@@H](C(=O)N[C@H](C(N)=O)[C@@H](C)O)NC(=O)[C@H](CC)NC(=O)[C@H](CCCCN)NC(=O)[C@@H](Cc3c[nH]c4ccccc34)NC(=O)[C@H](Cc3ccc(O)cc3)NC2=O)CC1 [Example 19, SN38-rvGly-Suc-(Doc)4-Aepa-D-Phe-c(Cys-Tyr-D-Trp-Lys-Abu-Cys)-Thr-NH2] | 6.9 | – | ≥ 1000 | 2.6 | – | – |
| CCCC[C@H](NC(=O)[C@H](CC(C)C)NC(=O)[C@H](Cc1c[nH]cn1)NC(=O)CCNC(=O)[C@@H](NC(=O)[C@H](C)NC(=O)[C@H](Cc1c[nH]c2ccccc12)NC(=O)[C@H](CCC(N)=O)NC(=O)[C@@H](Cc1ccc(O)cc1)NC(=O)[C@@H](CO)NC(=O)[C@H](CCCCN)NC(=O)COCCOCCNC(=O)COCCOCCNC(=O)COCCOCCNC(=O)COCCOCCNC(=O)CCC(=O)NCC(=O)O[C@]1(CC)C(=O)OCc2c1cc1n(c2=O)Cc2cc3ccccc3nc2-1)C(C)C)C(N)=O [Example 25, Camptothecin-rvGly-Suc-(Doc)4-Lys-D-Ser-D-Tyr-Gln-Trp-Ala-Val-β-Ala-His-Leu-Nle-NH2] ({X1-Gly-Suc-AEEA-AEEA-AEEA-AEEA}-K[dS][dY]QWAV[βAla]HL[Nle]-NH2) | 2.4 | – | – | 2.6 | – | – |
| CC[C@@H]1NC(=O)[C@H](CCCCN)NC(=O)[C@@H](Cc2c[nH]c3ccccc23)NC(=O)[C@H](Cc2ccc(O)cc2)NC(=O)[C@@H](NC(=O)[C@@H](Cc2ccccc2)NC(=O)CN2CCN(CCNC(=O)COCCOCCNC(=O)COCCOCCNC(=O)COCCOCCNC(=O)COCCOCCNC(=O)CCC(=O)N[C@@H](Cc3ccccc3)C(=O)O[C@]3(CC)C(=O)OCc4c3cc3n(c4=O)Cc4cc5ccccc5nc4-3)CC2)CSSC[C@@H](C(=O)N[C@H](C(N)=O)[C@@H](C)O)NC1=O [Example 10, Camptothecin-rvPhe-Suc-(Doc)4-Aepa-D-Phe-c(Cys-Tyr-D-Trp-Lys-Abu-Cys)-Thr-NH2] | 0.3 | ≥ 1000 | ≥ 1000 | 2.4 | – | – |
| CC[C@@H]1NC(=O)[C@H](CCCCN)NC(=O)[C@@H](Cc2c[nH]c3ccccc23)NC(=O)[C@H](Cc2ccc(O)cc2)NC(=O)[C@@H](NC(=O)[C@@H](Cc2ccccc2)NC(=O)CN2CCN(CCNC(=O)COCCOCCNC(=O)COCCOCCNC(=O)COCCOCCNC(=O)COCCOCCNC(=O)CCCC(=O)O[C@]3(CC)C(=O)OCc4c3cc3n(c4=O)Cc4cc5ccccc5nc4-3)CC2)CSSC[C@@H](C(=O)N[C@H](C(N)=O)[C@@H](C)O)NC1=O [Example 16, Camptothecin-Glut-(Doc)4-Aepa-D-Phe-c(Cys-Tyr-D-Trp-Lys-Abu-Cys)-Thr-NH2] | 3.6 | ≥ 1000 | ≥ 1000 | 4.2 | – | – |
| CCCC[C@H](NC(=O)[C@H](CC(C)C)NC(=O)[C@H](Cc1c[nH]cn1)NC(=O)CCNC(=O)[C@@H](NC(=O)[C@H](C)NC(=O)[C@H](Cc1c[nH]c2ccccc12)NC(=O)[C@H](CCC(N)=O)NC(=O)[C@@H](Cc1ccc(O)cc1)NC(=O)[C@@H](CO)NC(=O)CCCNC(=O)CN1CCN(CCNC(=O)COCCOCCNC(=O)COCCOCCNC(=O)COCCOCCNC(=O)COCCOCCNC(=O)CCC(=O)NCC(=O)O[C@]2(CC)C(=O)OCc3c2cc2n(c3=O)Cc3cc4ccccc4nc3-2)CC1)C(C)C)C(N)=O [Example 28, Camptothecin-rvGly-Suc-(Doc)4-Aepa-Gaba-D-Ser-D-Tyr-Gln-Trp-Ala-Val-β-Ala-His-Leu-Nle-NH2] ({X1-Gly-Suc-AEEA-AEEA-AEEA-AEEA}-[Pipz(1-CH2CO,4-CH2CH2NH)][GABA][dS][dY]QWAV[βAla]HL[Nle]-NH2) | 1.9 | – | – | 2.9 | – | – |
| CC[C@@H]1NC(=O)[C@H](CCCCN)NC(=O)[C@@H](Cc2c[nH]c3ccccc23)NC(=O)[C@H](Cc2ccc(O)cc2)NC(=O)[C@@H](NC(=O)[C@@H](Cc2ccccc2)NC(=O)CN2CCN(CCNC(=O)COCCOCCOCCNC(=O)COCCOCCOCCNC(=O)COCCOCCOCCNC(=O)CCC(=O)N[C@H](CC(=O)O)C(=O)O[C@]3(CC)C(=O)OCc4c3cc3n(c4=O)Cc4cc5ccccc5nc4-3)CC2)CSSC[C@@H](C(=O)N[C@H](C(N)=O)[C@@H](C)O)NC1=O [Example 29, Camptothecin-rvDAsp-Suc-(Peg3)3-Aepa-DPhe-c(Cys-Tyr-DTrp-Lys-Abu-Cys)-Thr-NH2] | 9.3 | – | ≥ 1000 | 44.1 | – | – |
| CC[C@@H]1NC(=O)[C@H](CCCCN)NC(=O)[C@@H](Cc2c[nH]c3ccccc23)NC(=O)[C@H](Cc2ccc(O)cc2)NC(=O)[C@@H](NC(=O)[C@@H](Cc2ccccc2)NC(=O)CN2CCN(CCNC(=O)COCCOCCNC(=O)COCCOCCNC(=O)COCCOCCNC(=O)COCCOCCNC(=O)CCC(=O)NCCCCC(=O)O[C@]3(CC)C(=O)OCc4c3cc3n(c4=O)Cc4cc5ccccc5nc4-3)CC2)CSSC[C@@H](C(=O)N[C@H](C(N)=O)[C@@H](C)O)NC1=O [Example 11, Camptothecin-rvApn-Suc-(Doc)4-Aepa-D-Phe-c(Cys-Tyr-D-Trp-Lys-Abu-Cys)-Thr-NH2] | 5 | ≥ 1000 | ≥ 1000 | 3.7 | – | – |
| CCCC[C@H](NC(=O)[C@H](CC(C)C)NC(=O)[C@H](Cc1c[nH]cn1)NC(=O)CCNC(=O)[C@@H](NC(=O)[C@H](C)NC(=O)[C@H](Cc1c[nH]c2ccccc12)NC(=O)[C@H](CCC(N)=O)NC(=O)[C@@H](Cc1ccc(O)cc1)NC(=O)[C@@H](C)NC(=O)[C@H](CCCNC(=N)N)NC(=O)COCCOCCNC(=O)COCCOCCNC(=O)COCCOCCNC(=O)COCCOCCNC(=O)CCC(=O)NCC(=O)O[C@]1(CC)C(=O)OCc2c1cc1n(c2=O)Cc2cc3ccccc3nc2-1)C(C)C)C(N)=O [Example 26, Camptothecin-rvGly-Suc-(Doc)4-Arg-D-Ala-D-Tyr-Gln-Trp-Ala-Val-β-Ala-His-Leu-Nle-NH2] ({X1-Gly-Suc-AEEA-AEEA-AEEA-AEEA}-R[dA][dY]QWAV[βAla]HL[Nle]-NH2) | 1.4 | – | – | 1.8 | – | – |
| CC[C@@H]1NC(=O)[C@H](CCCCN)NC(=O)[C@@H](Cc2c[nH]c3ccccc23)NC(=O)[C@H](Cc2ccc(O)cc2)NC(=O)[C@@H](NC(=O)[C@@H](Cc2ccccc2)NC(=O)CN2CCN(CCNC(=O)COCCOCCNC(=O)COCCOCCNC(=O)COCCOCCNC(=O)COCCOCCNC(=O)CCC(=O)N[C@H](CCC(=O)O)C(=O)O[C@]3(CC)C(=O)OCc4c3cc3n(c4=O)Cc4cc5ccccc5nc4-3)CC2)CSSC[C@@H](C(=O)N[C@H](C(N)=O)[C@@H](C)O)NC1=O [Example 31, Camptothecin-rvDGlu-Suc-(Doc)4-Aepa-DPhe-c(Cys-Tyr-DTrp-Lys-Abu-Cys)-Thr-NH2] | – | – | ≥ 1000 | – | – | – |
| CC[C@@H]1NC(=O)[C@H](CCCCN)NC(=O)[C@@H](Cc2c[nH]c3ccccc23)NC(=O)[C@H](Cc2ccc(O)cc2)NC(=O)[C@@H](NC(=O)[C@@H](Cc2ccccc2)NC(=O)CN2CCN(CCNC(=O)CCOCCOCCOCCOCCOCCOCCOCCOCCOCCOCCOCCOCCNC(=O)CCC(=O)N[C@H](CC(=O)O)C(=O)O[C@]3(CC)C(=O)OCc4c3cc3n(c4=O)Cc4cc5ccccc5nc4-3)CC2)CSSC[C@@H](C(=O)N[C@H](C(N)=O)[C@@H](C)O)NC1=O [Example 30, Camptothecin-rvDAsp-Suc-Peg11-Aepa-DPhe-c(Cys-Tyr-DTrp-Lys-Abu-Cys)-Thr-NH2] | – | – | ≥ 1000 | – | – | – |
